According to US12281155 (INSTITUT PASTEUR, dated 2025):
Residue numbers refer to the chain shown, from its start.

B1: SPK002M A5 antibody (antibody, human IgG1, kappa, V domains shown)
VH: EVQLVESGGGLIQPGGSLRLSCAASVITVTSNYMSWVRQAPGKGLEWVSVIYPGGSTFYADSVKGRFTISADNSKNTLYLQMNSLRAEDTAVYYCARDLVVYGMDVWGQGTTVTVSS
VL: EIVLTQSPGTLSLSPGERATLSCRASQSVSSSYLAWYQQKPGQAPRLLIYGASSRATGIPGRFSGSGSGTDFTLTISRLEPEDFAIYYCQQGVTFGGGTKVEIKR
B2: SPK002M B1 antibody (antibody, human IgG1, kappa, V domains shown)
VH: B1 VH with V26I, A71Y
VL: B1 VL with S31D, Q91Y
B3: SPK002M B2 antibody (antibody, human IgG1, kappa, V domains shown)
VH: B1 VH with V26I, A71Y
VL: B1 VL
B4: SPK002M C1 antibody (antibody, human IgG1, kappa, V domains shown)
VH: B1 VH with V26I, I51A, A71T
VL: B1 VL with S31D, I86V, Q91Y

What was measured:
[1] = biological target: Spike protein of SARS-CoV-2 strain XBB.1.16 (hCoV-19/France/GES-IPP7712/2023) (SARS-CoV-2); assay: cell-based or functional assay
[2] = biological target: Spike protein of SARS-CoV-2 strain JN.1 (hCoV-19/France/HDF-IPP21391/2023) (SARS-CoV-2); assay: cell-based or functional assay
[3] = biological target: Spike protein of SARS-CoV-2 strain XBB.1.5 (GISAID EPI_ISL_16353849) (SARS-CoV-2); assay: cell-based or functional assay
[4] = biological target: Spike protein of SARS-CoV-2 strain EG.5.1 (hCoV-19/France/GES-IPP15954/2023) (SARS-CoV-2); assay: cell-based or functional assay
[5] = biological target: Spike protein of SARS-CoV-2 strain BA.2.86 (hCoV-19/France/IDF-IPP17625/2023) (SARS-CoV-2); assay: cell-based or functional assay
[6] = biological target: Spike protein of SARS-CoV-2 strain D614G (hCoV-19/France/GE1973/2020) (SARS-CoV-2, UniProt P0DTC2 14-1273); assay: cell-based or functional assay
[7] = biological target: T1, recombinant SARS-CoV-2 Spike RBD domain, EG.5 variant (SARS-CoV-2); assay: ELISA on coated RBD
T1 construct: also called RBD EG.5.1 variant

[8] = biological target: T2, recombinant SARS-CoV-2 Spike RBD domain, BQ.1.1 variant (SARS-CoV-2); assay: ELISA on coated RBD
T2 construct: also called RBD BQ.1.1. variant

[9] = biological target: T3, recombinant SARS-CoV-2 Spike RBD domain, XBB.1.5 variant (SARS-CoV-2); assay: ELISA on coated RBD
T3 construct: also called RBD XBB.1.5 variant

[10] = biological target: T4, recombinant SARS-CoV-2 Spike RBD domain, XBB.1.16 variant (SARS-CoV-2); assay: ELISA on coated RBD
T4 construct: also called RBD XBB.1.16 variant

[11] = biological target: T5, recombinant SARS-CoV-2 Spike RBD domain, BA.4/5 variant (SARS-CoV-2); assay: ELISA on coated RBD
T5 construct: also called RBD BA.4/5 variant

[12] = biological target: T6, recombinant SARS-CoV-2 Spike RBD domain, Delta variant (SARS-CoV-2); assay: ELISA on coated RBD
T6 construct: also called RBD Delta variant

[13] = biological target: T7, recombinant SARS-CoV-2 Spike RBD domain, BA.2.75.2 variant (SARS-CoV-2); assay: ELISA on coated RBD
T7 construct: also called RBD BA.2.75.2 variant

[14] = biological target: T8, recombinant SARS-CoV-2 Spike RBD domain, BA.2.86 variant (SARS-CoV-2); assay: ELISA on coated RBD
T8 construct: also called RBD BA.2.86 variant

[15] = biological target: T9, recombinant SARS-CoV-2 Spike RBD domain, BA.2 variant (SARS-CoV-2); assay: ELISA on coated RBD
T9 construct: also called RBD BA.2. variant

[16] = biological target: T10, recombinant SARS-CoV-2 Spike RBD domain, JN-1 variant (SARS-CoV-2); assay: ELISA on coated RBD
T10 construct: also called RBD JN-1 variant

[17] = biological target: T1, recombinant SARS-CoV-2 Spike RBD …; assay: competition ELISA, blocking of RBD binding to ACE2 ectodomain
[18] = biological target: T2, recombinant SARS-CoV-2 Spike RBD …; assay: as above
[19] = biological target: T3, recombinant SARS-CoV-2 Spike RBD …; assay: as above
[20] = biological target: T4, recombinant SARS-CoV-2 Spike RBD …; assay: as above
[21] = biological target: T5, recombinant SARS-CoV-2 Spike RBD …; assay: as above
[22] = biological target: T6, recombinant SARS-CoV-2 Spike RBD …; assay: as above
[23] = biological target: T7, recombinant SARS-CoV-2 Spike RBD …; assay: as above
[24] = biological target: T8, recombinant SARS-CoV-2 Spike RBD …; assay: as above
[25] = biological target: T9, recombinant SARS-CoV-2 Spike RBD …; assay: as above
[26] = biological target: T10, recombinant SARS-CoV-2 Spike RBD …; assay: as above

Binder | IC50, S-Fuse neutralization of live virus [1] [µg/mL] | IC50, S-Fuse neutralization of live virus [2] [µg/mL] | IC50, S-Fuse neutralization of live virus [3] [µg/mL] | IC50, S-Fuse neutralization of live virus [4] [µg/mL] | IC50, S-Fuse neutralization of live virus [5] [µg/mL] | IC50, S-Fuse neutralization of live virus [6] [µg/mL] | Binding AUC [7] | Binding AUC [8] | Binding AUC [9] | Binding AUC [10] | Binding AUC [11] | Binding AUC [12] | Binding AUC [13] | Binding AUC [14] | Binding AUC [15] | Binding AUC [16] | Blocking % [17] [%] | Blocking % [18] [%] | Blocking % [19] [%] | Blocking % [20] [%] | also measured
B1 | 0.36 | 50.9 | 0.12 | 2.86 | 0.08 | 0.09 | 35 | 30 | 35 | 31 | 32 | 33 | 34 | 38 | 27 | 32 | 83 | 96 | 95 | 95 | Blocking % [21]: 96%; Blocking % [22]: 93%; Blocking % [23]: 95%; Blocking % [24]: 84%; Blocking % [25]: 93%; Blocking % [26]: 2%
B2 | 0.18 | 4.1 | 0.07 | 0.19 | 0.03 | 0.11 | 33 | 31 | 31 | 30 | 31 | 33 | 30 | 39 | 29 | 38 | 95 | 97 | 97 | 97 | Blocking % [21]: 95%; Blocking % [22]: 91%; Blocking % [23]: 91%; Blocking % [24]: 94%; Blocking % [25]: 95%; Blocking % [26]: 66%
B3 | 0.32 | 85.8 | 0.14 | 5.53 | 0.19 | 0.09 | 32 | 31 | 32 | 30 | 30 | 32 | 29 | 39 | 26 | 28 | 70 | 95 | 92 | 92 | Blocking % [21]: 91%; Blocking % [22]: 88%; Blocking % [23]: 91%; Blocking % [24]: 86%; Blocking % [25]: 92%; Blocking % [26]: 0%
B4 | 0.12 | 1.73 | 0.07 | 0.16 | 0.03 | 0.08 | 32 | 31 | 31 | 29 | 30 | 32 | 28 | 38 | 28 | 39 | 96 | 97 | 96 | 96 | Blocking % [21]: 97%; Blocking % [22]: 94%; Blocking % [23]: 95%; Blocking % [24]: 96%; Blocking % [25]: 95%; Blocking % [26]: 83%
